{"source": "patent US20250304662A1", "about": "(published 2025)", "key": {"[1]": {"target": "T1, E. coli FimH lectin domain truncate (UT189) (E. coli (UT189))", "T1 chain": "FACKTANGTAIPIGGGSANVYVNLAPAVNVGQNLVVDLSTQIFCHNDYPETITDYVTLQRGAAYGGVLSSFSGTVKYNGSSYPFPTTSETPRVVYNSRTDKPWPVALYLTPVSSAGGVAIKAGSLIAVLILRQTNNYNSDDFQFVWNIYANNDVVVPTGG", "test": "BLI"}, "[2]": {"target": "T1, E. coli FimH lectin domain truncate …", "test": "BLI"}}, "note": "Where two headings read alike, the source gives them in different places.", "data": [{"binder": "Kp2 2C07 Fab (Fab, V domains shown) VH: EVKLVESGEGLVKPGGSLKLSCAASGFTFSSYAMSWVRQTPEKRLDWVAYISSGGDHIYYADTVKGRFTISRDNARNTLYLQMSSLKSEDTAMYYCTRDTGYYVSRYFDVWGTGTTVTVSS VL: DIVMTQSQKFMSTSVGDRVSVTCKASQNVVTNVAWYQQKSGQSPKVVIYSASFRSSGVPDRFTGSGSGTDFTLTISNVQSEDLAEYFCHQYNSHPLTFGGGTKLEIKR", "values": [{"measurement": "Kd", "setting": "[1]", "result": 2.8, "unit": "nM"}, {"measurement": "Kd", "setting": "[2]", "result": 2.8, "unit": "nM"}]}]}
